The source of these data is the nanobody polyreactivity screen of Harvey et al. (2022).

The series can be described thus: yeast display, Sf9 membrane polyspecificity reagent, FACS + sequencing; frameworks hold sequencing errors. The essentials: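 Nanobodies came from a synthetic yeast display library in Saccharomyces cerevisiae BJ5465, induced with galactose for 36–48 hours and stained for 1 hour at 4 °C with 10% biotinylated, detergent-solubilized Sf9 membrane reagent. Cells were enriched on streptavidin microbeads and then FACS-sorted, with low and high (top ~1%) gates set on anti-HA fluorescence for expression and streptavidin fluorescence for reagent binding. Each polyreactivity label reflects the gate a clone came from. Genes were amplified by colony PCR, sequenced by MiSeq 2 × 250 and filtered by CDR length.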
Take “QVQLVESGGGLVQAGGSLRLSCAASGRTFWQYSMGWYRQAPGKERELVAAITSSGGSTYYADSVKGRFTISRDNAKNTVYLQMNSLKPEDTAVYYCAADTRYYRYYYWGQGTQVTVSS”: the “polyreactivity (PSR sort gate)” value is “high polyreactivity”.

As for “QVQLVESGGGLVQAGGSLRLSCAASGRTFWRYAMGWYRQAPGKERELVAAISVSGGTTYYADSVKGRFTISRDNAKNTVYLQMNSLKPEDTAVYYCAARYGSIYSILYYGFDYWGQGTQVTVSS”, the “polyreactivity (PSR sort gate)” value is reported as “high polyreactivity”.

As for “QVQLVESGGGLVQAGGSLRLSCAASGRTFWRYAMGWYRQAPGKERELVAGITSRGGSTYYADSVKGRFTISRDNAKNTVYLQMNSLKPEDTAVYYCNRRSQVHSHSKHDYWGQGTQVTVSS”, the “polyreactivity (PSR sort gate)” value is “low polyreactivity”.

For “QVQLVESGGGLVQAGGSLRLSCAASGRTFWRYAMGWYRQAPGKERELVATISSGGSTNYADSVKGRFTISRDNAKNTVYLQMNSLKPEDTAVYYCNAEYSYYDLLAYDYWGQGTQVTVSS”, the “polyreactivity (PSR sort gate)” value is recorded as “low polyreactivity”.

On to “QVQLVESGGGLVQAGGSLRLSCAASGRTFWSNAMGWSRQAPGKERELVAAITWSGGSTSYADSVKGRFTISRDNAKNTVYLQMNSLKTEDTAVYYCAAGKGVELAKLDYWGQGTQVTVSS”, for which the “polyreactivity (PSR sort gate)” value is recorded as “low polyreactivity”.

For the sequence “QVQLVESGGGLVQAGGSLRLSCAASGRTFWSYAMGWYRQAPGKERELVATITGRGGSTYYADSVKGRFTISRDNAKNTVYLQMNSLKPEDTAVYYCARSQYSRSPSRMGYWGQGTQVTVSS”, the “polyreactivity (PSR sort gate)” value was “high polyreactivity”.

In the case of “QVQLVESGGGLVQAGGSLRLSCAASGRTFWTNAMGWYRQAPGKERELVAAITKSGGRTYYADSVKGRFTISRDNAKNTVYLQMNRLKPEDTAVYYCAAYSQGEGGYWGQGTQVTVSS”, the “polyreactivity (PSR sort gate)” value is listed as “high polyreactivity”.

With “QVQLVESGGGLVQAGGSLRLSCAASGRTFWTNAMGWYRQAPGKERELVASINWSGGGTYYADSVKGRFTISRDNAKNTVYLQMNSLKPEDTAVYYCNVYSNPEKEYEYWGQGTQVTVSS”, the “polyreactivity (PSR sort gate)” value was “low polyreactivity”.

With “QVQLVESGGGLVQAGGSLRLSCAASGRTFWVNAMGWYRQAPGKERELVAAITSSVSSTYYADSVKGRFTISRDNAKNTVYLQMNSLKPEDTAVYYCAAGVGRGMYYWGQGTQVTVSS”, the “polyreactivity (PSR sort gate)” value is “low polyreactivity”.

With “QVQLVESGGGLVQAGGSLRLSCAASGRTFWVYAMGWYRQAPGKERELVAAINNGGSTTYADSVKGRFTISRDNAKNTVYLQMNSLKPEDTAVYYCAADSVKQVRYGNVGHDYWGQGTQVTVSS”, the “polyreactivity (PSR sort gate)” value is reported as “low polyreactivity”.

Turning to “QVQLVESGGGLVQAGGSLRLSCAASGRTFWVYAMGWYRQAPGKERELVAAIRRGGITNYADSVKGRFTISRDNAKNTVYLQMNSLKPEDTAVYYCATDNYGYLTRYYYWGQGTQVTVSS”, the “polyreactivity (PSR sort gate)” value is listed as “low polyreactivity”.

For the sequence “QVQLVESGGGLVQAGGSLRLSCAASGRTFWVYAMGWYRQAPGKERELVAAISLSGVSTYYADSVKGRFTISRDNAKNTVYLQMNSLKPDDTAVYYCAAPLIYTPLKYHYWGQGTQVTVSS”, the “polyreactivity (PSR sort gate)” value is “low polyreactivity”.

“QVQLVESGGGLVQAGGSLRLSCAASGRTFWVYAMGWYRQAPGKERELVAGISSGASTYYADSVKGRFTISRDNAKNTVYLQMNSLKPEDTAVYYCAAPYYRLTGWSRYDYWGQGTQVTVSS”: the “polyreactivity (PSR sort gate)” value was “high polyreactivity”.

Take “QVQLVESGGGLVQAGGSLRLSCAASGRTFWWYAMGWYRQAPGKEREFVAAISQRGTSTYYADSVKGRFTISRDNAKNTVYLQMNSLKPEDTAVYYCAAPLYRRWEVTYDYWGQGTQVTVSS”: the “polyreactivity (PSR sort gate)” value is “high polyreactivity”.

In the case of “QVQLVESGGGLVQAGGSLRLSCAASGRTFWYNAMGWYRQAPGKEREFVAAITSSGGSTYYADSVKGRFTISRDNAKHTVFLQMNSLKPEDTAVYYCNKRPGPYKWPPRHDYWGQGTQVTVSS”, the “polyreactivity (PSR sort gate)” value is “low polyreactivity”.

Regarding “QVQLVESGGGLVQAGGSLRLSCAASGRTFWYNAMGWYRQAPGKERELVAAISSTGGRTYYADSVKGRFTISRDNAKNTVYLQMNSLKPEDTAVYYCAKYPSKSYVPGDYWGQGTQVTVSS”, the “polyreactivity (PSR sort gate)” value was “low polyreactivity”.

With “QVQLVESGGGLVQAGGSLRLSCAASGRTFWYYAMGWYRHAPGKERELVAAITSGGSTNYADSVKGRFTISRDNAKNTVSLQMNSLKPEDTAVYYCAKLFRQRRYWDWYDYWGQGTQVTVSS”, the “polyreactivity (PSR sort gate)” value was “high polyreactivity”.

In the case of “QVQLVESGGGLVQAGGSLRLSCAASGRTFWYYAMGWYRQAPGKAREWVATISYRGGSTYYADSVKGRFTISRDNAKNTVNLQMNSLKPEDTAVYYCAAKQWWGGRPKVDYWGQGTQVTVSS”, the “polyreactivity (PSR sort gate)” value is given as “high polyreactivity”.

For “QVQLVESGGGLVQAGGSLRLSCAASGRTFWYYDKGWYRQAPGKERELVAAITNGDRTYYADSVKGRFTISRDNAKNTVYLQMNSLKPEDTAVYYCAKETWGTRHDYWGQGTQVTVSS”, the “polyreactivity (PSR sort gate)” value is recorded as “high polyreactivity”.

Take “QVQLVESGGGLVQAGGSLRLSCAASGRTFWYYGMGWYRQAPGKERELVAAISRSGGRTSYADSVKGRFTISRDNAKNTVYLQMNSLKPEDTAVYYCATDGYYRYGYWGQGTQVTVSS”: the “polyreactivity (PSR sort gate)” value is given as “high polyreactivity”.

“QVQLVESGGGLVQAGGSLRLSCAASGRTFWYYTMGWYRQAPGKERELVAAISSGGRTNYADSVKGRFTISRDNAKNTVYLQMNSLKPEYTAVYYCATSRYYKYVERDYWGQGTQVTVSS”: the “polyreactivity (PSR sort gate)” value is “high polyreactivity”.

In the case of “QVQLVESGGGLVQAGGSLRLSCAASGRTFWYYTMGWYRQAPGKERELVAGITGTGGSTYYADSVKGRFTISRDNAKNTVYLQMNSLKPEDTAVYYCNALRRSQRYWDPYGYDYWGQGTQVTVSS”, the “polyreactivity (PSR sort gate)” value was “high polyreactivity”.

Consider “QVQLVESGGGLVQAGGSLRLSCAASGRTFYANAMGWYRQAPGKERELVASITTSGGTYYADSVKGRFTISRDNAKNTVYLQMNSLKPEDTAVYYCAAEVYRSIGYDYWGQGTQVTVSS”, for which the “polyreactivity (PSR sort gate)” value is “low polyreactivity”.

For the sequence “QVQLVESGGGLVQAGGSLRLSCAASGRTFYANTMGWYRQAPGKERELVAAITVRGGTTFYADSVKGRFTISRDNAKNTVYLQMNSLKPEDTAVYYCAAYGYRYSHEYYYWGQGTQVTVSS”, the “polyreactivity (PSR sort gate)” value was “high polyreactivity”.

On to “QVQLVESGGGLVQAGGSLRLSCAASGRTFYAYAMGWYRQAPGKERELVAAITSGASTYYADSVKGRFTISRDNAKNTVYLQMFSLKPEDTAVYYCNAEYYEGYIGVPGSFWPYEYWGQGTQVTVSS”, for which the “polyreactivity (PSR sort gate)” value is listed as “low polyreactivity”.

As for “QVQLVESGGGLVQAGGSLRLSCAASGRTFYAYDMGWYRQAPGKERELVAAINSGDRTNYADSVKGRFTISRDNAKNTDYLQMNSLKPEDTAVYYCAADWYTPQGVGLDYWGQGTQVTVSS”, the “polyreactivity (PSR sort gate)” value is on record as “low polyreactivity”.

Regarding “QVQLVESGGGLVQAGGSLRLSCAASGRTFYAYTMGWYRTAPGKERELVAAITRRGGSTYYADSVKGRFTISRDNAKNTVYLQMNSLKPEDTAVYYCAASYSHRNYGLTYDYWGQGTQVTVSS”, the “polyreactivity (PSR sort gate)” value is “high polyreactivity”.

“QVQLVESGGGLVQAGGSLRLSCAASGRTFYDNAMGWYRQAPGKERELVAVISRSGSTYYADSVKGRFTISRDNAKNTVYLQMNSLKPEDTAVYYCARRGVWGVTYSRLYHWGQGTLVTVSS”: the “polyreactivity (PSR sort gate)” value was “high polyreactivity”.

Regarding “QVQLVESGGGLVQAGGSLRLSCAASGRTFYDYTMGRYRQAPGKERELVAAISQRGGSTYYADSVKGRFTISRDNAKNTVYLQMNSLKPEDTAVYYCAARTSYSGNKYYYWGQGTQVTVSS”, the “polyreactivity (PSR sort gate)” value is listed as “high polyreactivity”.

“QVQLVESGGGLVQAGGSLRLSCAASGRTFYDYTMGWYRQAPGKERELVAVISKRGGSTYYADSVKGRFTISRDNAKNTVYLQMNSLKPEDTAVYYCAAKSGRNVYQKVDYWGQGTQVTVSS”: the “polyreactivity (PSR sort gate)” value is on record as “high polyreactivity”.

Take “QVQLVESGGGLVQAGGSLRLSCAASGRTFYFNAMGWYRQAPGKERELVAAITFSGGSTNYADSVKGRFTISRDNAKNTVYLQMNSLKPEDTAVYYCAAPKYLGTDEYDYWGQGTQVTVSS”: the “polyreactivity (PSR sort gate)” value was “low polyreactivity”.

In the case of “QVQLVESGGGLVQAGGSLRLSCAASGRTFYFYAMGWYRQAPGKERELVAAIDFSGDSTYYADSVKGRFTISRDNAKNTVYLQMNSLKPEDTAVYYCAAEIYIGEQPYDYWGQGTQVTVSS”, the “polyreactivity (PSR sort gate)” value was “low polyreactivity”.

In the case of “QVQLVESGGGLVQAGGSLRLSCAASGRTFYFYAMGWYRQAPGKERELVADIRGITGSTYYADSVKGRFTISRDNAKNTVYLQMNSLKPEDTAVYYCAADQYLGRAWRGRGYYWGQGTQVTVSS”, the “polyreactivity (PSR sort gate)” value is listed as “high polyreactivity”.

For the sequence “QVQLVESGGGLVQAGGSLRLSCAASGRTFYFYTMGWYRQAPGIERELVATIRWSAGSTYSADSVKGRFTISRDNAKNTVYLQMTSLKPEDTAVYYCNADPYVYSSWQYGYWGQGTQVTVSS”, the “polyreactivity (PSR sort gate)” value is “high polyreactivity”.

Take “QVQLVESGGGLVQAGGSLRLSCAASGRTFYFYTMGWYRQAPGKERELVAAITSGGSTNYADSVKGRFTISRDNAKNTVYLQMNSLKPEDTAVYYCAAIYYRVYGYGLRMYYWGQGTQVTVSS”: the “polyreactivity (PSR sort gate)” value is reported as “high polyreactivity”.

“QVQLVESGGGLVQAGGSLRLSCAASGRTFYFYVMGWYRQAPGKERELVARISYSDGSTYYADSVKGRFTISRDNAKNTVYLQMNSLKPEDTAVYYCNAYDPYYGRRYDYWGQGTQVTVSS”: the “polyreactivity (PSR sort gate)” value was “low polyreactivity”.

For the sequence “QVQLVESGGGLVQAGGSLRLSCAASGRTFYGNAIAWYRQAPGKERELVAAINRGGNTNYADSVKGRFTISRDNAKNTVYLQMNSLKPEDTAVYYCAARPYYRYFEYWGQGTQVTVSS”, the “polyreactivity (PSR sort gate)” value is on record as “high polyreactivity”.

For the sequence “QVQLVESGGGLVQAGGSLRLSCAASGRTFYGNAMGWYRQAPGKERELVASITRRGGITYYADSVKGRFTISRDNAKNTVYLQMNSLKPEDTAVYYCAKAQLGPWSFEYWGQGTQVTVSS”, the “polyreactivity (PSR sort gate)” value was “high polyreactivity”.

Take “QVQLVESGGGLVQAGGSLRLSCAASGRTFYGNAMGWYRQAPGNERELVAAITTGGGNTYYADSVKGRFTISRDNAKNTVYLQMNSLKPDDTAVYYCAAYERKFYTVSRWYKLDYWGQGTQVTVSS”: the “polyreactivity (PSR sort gate)” value was “high polyreactivity”.

“QVQLVESGGGLVQAGGSLRLSCAASGRTFYGYAKGWYIQAPGKERELVAAITRAGSTNYADSVKGRFTISRDNAKNTFYLQLNSLKPEDTAVYYCAAVRVHTDRYNYWGQGTQVTVSS”: the “polyreactivity (PSR sort gate)” value is “high polyreactivity”.

“QVQLVESGGGLVQAGGSLRLSCAASGRTFYGYAMAWYRQAPGKERELVAAISVSGGSPYYADSVKGRFTISRDNAKNTVYLQMNSQKPEDTAVYYCIAKYSYRRWYDFDYWGQGTQVTVSS”: the “polyreactivity (PSR sort gate)” value is recorded as “low polyreactivity”.
